Source: patent US8846873B2, “Antibodies directed to GPNMB and uses thereof” (Celldex Therapeutics, Inc., priority 2004, dated 2014)

T1: GPNMB (Homo sapiens, UniProt Q14956)
T1 construct: made in house; host or cells: HEK 293
T1 sequence (Q14956 23-492): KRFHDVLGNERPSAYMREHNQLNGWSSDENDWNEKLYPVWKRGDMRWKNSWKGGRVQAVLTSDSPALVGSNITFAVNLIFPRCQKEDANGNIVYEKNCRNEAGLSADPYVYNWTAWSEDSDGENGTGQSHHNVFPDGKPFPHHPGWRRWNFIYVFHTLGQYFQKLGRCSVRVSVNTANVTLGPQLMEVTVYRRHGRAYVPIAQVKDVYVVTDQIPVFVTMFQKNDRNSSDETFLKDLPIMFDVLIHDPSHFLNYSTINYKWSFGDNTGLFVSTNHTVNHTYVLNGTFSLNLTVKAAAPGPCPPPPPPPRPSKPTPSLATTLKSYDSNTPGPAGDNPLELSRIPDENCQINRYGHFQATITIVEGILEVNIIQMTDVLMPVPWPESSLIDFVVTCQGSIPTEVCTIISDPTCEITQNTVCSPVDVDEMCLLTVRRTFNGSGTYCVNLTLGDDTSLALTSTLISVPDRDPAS

B1: Mab1.2.2: human anti-GPNMB antibody; VH SEQ ID NO: 38, VL SEQ ID NO: 47 (antibody, listed as Homo sapiens, V domains shown)
VH: ITLKESGPTLVKPTQTLTLTCTFSGFSLSAGGVGVGWIRQPPGKALEWLALIYWNDDKRYSPSLRSRLTITKDTSKNQVVLTITNMDPVDTATYYCAHSHYDYDWGSYFDYWGQGTLVTVSSA
VL: DIVMTQTPLSLPVTPGEPASISCRSSQSLLDSDDGNTYLDWYLQKPGQSPQLLIYTLSYRASGVPDRFSGSGSGTDFTLNISRVEAEDVGVYYCMQRIEFPITFGQGTRLEIKR
B2: Mab2.22.1: human anti-GPNMB antibody; VH SEQ ID NO: 164, VL SEQ ID NO: 173 (antibody, listed as Homo sapiens, V domains shown)
VH: QVQLEQSGPGLVKPSQNLSLTCTVSGGSISSGGYFWSWIRQHPGKGLEWIGYIYYSGNTYYNPSLKSRVTISVDTSKNQFSLKLSSVTAADTAVYYCARDYYYDTSGFSYRYDWYYGMDVWGQGTTVTVSSA
VL: DIQLTQSPSSLSASVGDRVTITCRASQGIRNDLGWYQQKPGKAPKRLIYAASSLQNGVPSRFSGSGSGTEFTLTISSLQPEDFATYYCLQHNTYPAFGQGTKVEIKR
B3: Mab1.10.2: human anti-GPNMB antibody; VH SEQ ID NO: 2, VL SEQ ID NO: 11 (antibody, listed as Homo sapiens, V domains shown)
VH: QVQLQESGPGLVKPSETLSLTCTVSGDSISNYYWSWIRQPPGKGLEWIGYFYYSGSTNYNPSLKSRVTISVDTSKNQFSLKLSSVTAADTAVYYCARDRGWADYWGQGTLVTVSSA
VL: EIVLTQSPGTLSLSPGERATLSCRTSQSISSSYLAWYQQKPGQVPRLLIYGASSRATGIPDRFSGSGSGTDFTLTISRLEPEDFAVYYCQQYGSSITFGQGTRLEIKR
B4: Mab1.7.1: human anti-GPNMB antibody; VH SEQ ID NO: 56, VL SEQ ID NO: 65 (antibody, listed as Homo sapiens, V domains shown)
VH: QVQLQESGPGLVKPSQTLSLTCTVSGGSISSANYYWTWIRQHPGKGLEWIGYIYYSGSTYCNPSLKSRVIISVDTSKNQFSLKLSSVTAADTAVYYCARGYNWNYFDYWGQGTLVTVSSA
VL: DIVMTQSPATLSVSPGERATLSCRASQSVSSNLAWYQERPGQAPRLLIYGASTRATGIPARFSGSGSGTEFTLTISSLQSEDFAVYYCQQYNKWPPWTFGQGTKVEIER

Columns and labels:
GPNMB [1] = molecular target: T1, GPNMB; assay: ELISA of hybridoma supernatants for binding to GPNMB
Procedure: After 14 days of culture, hybridoma supernatants were screened for GPNMB specific monoclonal antibodies. In the Primary screen, the ELISA plates (Fisher, Cat. No. 12-565-136) were coated with 50 μL/well of GPNMB (1 μg/mL) in Coating Buffer (0.1 M Carbonate Buffer, pH 9.6, NaHCO3 8.4 g/L), then incubated at 4° C. overnight. After incubation, the plates were washed with Washing Buffer (0.05% Tween 20 in PBS) three times. 200 μL/well Blocking Buffer (0.5% BSA, 0.1% Tween 20, 0.01% Thimerosal in 1×PBS) were added and the plates were incubated at room temperature for 1 h. After incubation, the plates were washed with Washing Buffer three times. Aliquots (50 μL/well) of hybridoma supernatants and positive and negative controls were added, and the plates were incubated at room temperature for 2 h. The positive control used throughout was serum from the relevant GPNMB immunized XenoMouse® mouse and the negative control was serum from the KLH-immunized relevant strain of XenoMouse® mouse. After incubation, the plates were washed three times with Washing Buffer. 100 μL/well of detection antibody goat anti-huIgGfc-HRP (Caltag, Cat. No. H10507, using concentration was 1:2000 dilution) was added and the plates were incubated at room temperature for 1 hour. After incubation, the plates were washed three times with Washing Buffer. 100 μl/well of TMB (BioFX Lab. Cat. No. TMSK-0100-01) was added, and the plates were allowed to develop for about 10 minutes (until negative control wells barely started to show color). 50 μl/well stop solution (TMB Stop Solution (BioFX Lab. Cat. No. STPR-0100-01) was then added and the plates were read on an ELISA plate reader at a wavelength of 450 nm.
Hybridoma supernatants were screened for binding to GPNMB by ELISA as described above in Example 2.

GPNMB [2] = molecular target: T1, GPNMB; assay: BiaCore 2000 biosensor binding of hybridoma supernatant mAb to GPNMB; conditions: mAb captured on protein A, GPNMB 880 nM, 1:1 kinetic model
Procedure: Certain Hybridoma cell supernatants (29) were analyzed for binding to GPNMB by BiaCore® 2000 biosensor equipped with a research-grade CMS sensor chip. A 1:25 dilution of cell supernatant was passed over a protein A surface for 5 min followed by washing the surface for 10 mins. Subsequently, GPNMB was injected for 90 sec. over the surface at a concentration of 880 nM followed by dissociation. Double-referenced binding data were obtained by subtracting the signal from a control flow cell and subtracting the baseline drift of a buffer injected just prior to the antigen injection. GPNMB binding ddata for each mAb was normalized for the amount of mAb captured on each surface. Normalized, drift corrected responses were also measured. The sensorgrams were fit to a simple 1:1 kinetic model.

TK10 cells = assay: FACS anti-GPNMB staining; assay type: binding, human; conditions: primary antibody 1 μg/mL
GPNMB [3] = molecular target: T1, GPNMB; assay: Binning of antibodies (Luminex competitive binding); conditions: three bins of six anti-GPNMB antibodies
Procedure: Certain antibodies, described herein were binned in accordance with the protocol described in U.S. Patent Application Publication No. 20030157730. MxhIgG conjugated beads are prepared for coupling to primary antibody. The volume of supernatant needed is calculated using the following formula: (n+10)×50 μL (where n=total number of samples on plate). Where the concentration is known, 0.5 μg/mL is used. Bead stock is gently vortexed, then diluted in supernatant to a concentration of 2500 of each bead per well or 0.5×10^5/mL and incubated on a shaker in the dark at RT overnight, or 2 hours if at a known concentration of […]. Following aspiration, 50 μL of each bead is added to each well of filter plate, then washed once by adding 100 μL/well wash buffer and aspirating. Antigen and controls are added to filter plate 50 μL/well then covered and allowed to incubate in the dark for 1 hour on shaker. Following a wash step, a secondary unknown antibody is added at 50 μL/well using the same dilution (or concentration if known) as is used for the primary antibody. The plates are then incubated in the dark for 2 hours at RT on shaker followed by a wash step. Next, 50 μL/well biotinylated mxhIgG diluted 1:500 is added and allowed to incubate in the dark for 1 hour on shaker at RT. […]

[4] = test system: normal and tumor human tissue microarrays; assay: GPNMB immunohistochemistry (IHC) analysis
Procedure: Anti-GPNMB monoclonal antibodies were evaluated for reactivity with frozen and fixed tissue specimens. Tissue sections (5 μm) were cut from formalin fixed and paraffin embedded tissue samples and were rehydrated through incubations in xylene and a graded ethanol series terminating in PBS. Endogenous peroxidase activity was quenched in a 3% solution of hydrogen peroxide in methanol.
Tissue sections were blocked in blocking buffer (5% BSA (Sigma), 1% goat serum (Jackson Immunolabs, West Grove, Pa.) in PBS) for 1 hour. Primary and secondary antibodies were precomplexed in 5% BSA and 1% goat serum in PBS for 1 hour at 37° C. at a molar ratio of approximately 10:1 of anti-GPNMB or control IgG to secondary biotinylated goat anti-human IgG (Jackson Immunolabs). Complexes were blocked with a 1:2000 dilution of human serum and incubated again for 1 hour at 37° C. Tissue sections were incubated with anti-GPNMB antibody or isotype control antibody complexes diluted in blocking buffer for 1 hour. Sections were washed in 3 changes of PBS for 5 to 10 minutes each and incubated with a 1:200 dilution of streptavidin conjugated horseradish peroxidase (Jackson Immunolabs) in blocking buffer for 30 minutes and then washed as before. Antibody was detected using DAB reagent (Vector labs). […]

Row | Molecule | Avg OD (GPNMB [1]; 12.3 ng/mL) | Avg OD (GPNMB [1]; 37 ng/mL) | Avg OD (GPNMB [1]; 111 ng/mL) | Avg OD (GPNMB [1]; 333 ng/mL) | Avg OD (GPNMB [1]; 1 μg/mL) | Avg OD (GPNMB [1]; 3 μg/mL) | Kd (GPNMB [2]) [nM] | ka (GPNMB [2]) [M⁻¹ s⁻¹] | kd (GPNMB [2]) [s⁻¹] | Geo Mean Ratio of anti-GPNMB Staining (relative to pK16) (TK10 cells) | Bin (GPNMB [3]) | staining of tissue specimens [4]
1 | B1 | 0.049 | 0.094 | 0.199 | 0.356 | 0.499 | 0.763 | 96 | 9257 | 0.00089 | 0.98 |  | 
2 | B2 |  |  |  |  |  |  |  |  |  | 1.10 | Bin 1 | Positive staining
3 | B3 |  |  |  |  |  |  | 118 | 3955 | 0.000466 |  |  | 
4 | B4 |  |  |  |  |  |  | 122 | 11842 | 0.00144 |  |  | 
